Positions count from the first letter of the chain named. Values belong to the binder of their own block, whether it stands above or below them.
Legend:
[1] = biological target: T1, human carcinoembryonic antigen (CEA), membrane-bound on cells (human, UniProt P06731 35-685); assay: FACS on MKN-45 cells
T1 construct: whole, on cells; also called CEACAM-5; CD66e
T1 sequence (looked up): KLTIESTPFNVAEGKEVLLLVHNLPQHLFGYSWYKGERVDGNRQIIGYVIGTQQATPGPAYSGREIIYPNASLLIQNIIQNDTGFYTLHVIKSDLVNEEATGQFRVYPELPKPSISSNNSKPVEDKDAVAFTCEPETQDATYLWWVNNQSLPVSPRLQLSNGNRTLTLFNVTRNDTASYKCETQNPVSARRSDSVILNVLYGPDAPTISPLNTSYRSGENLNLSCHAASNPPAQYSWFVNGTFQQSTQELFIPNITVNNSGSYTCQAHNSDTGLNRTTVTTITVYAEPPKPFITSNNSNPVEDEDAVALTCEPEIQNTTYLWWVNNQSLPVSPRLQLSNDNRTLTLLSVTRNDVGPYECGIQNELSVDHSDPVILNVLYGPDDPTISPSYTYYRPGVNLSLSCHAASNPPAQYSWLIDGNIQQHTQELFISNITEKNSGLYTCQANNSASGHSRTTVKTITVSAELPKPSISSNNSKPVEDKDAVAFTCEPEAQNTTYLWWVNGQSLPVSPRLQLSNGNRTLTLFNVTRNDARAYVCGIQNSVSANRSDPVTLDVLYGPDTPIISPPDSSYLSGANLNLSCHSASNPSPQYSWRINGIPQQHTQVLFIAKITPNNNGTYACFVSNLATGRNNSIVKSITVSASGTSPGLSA
Protocol: CH1A1 includes the M69F/T71L double point mutation. The latter three variants have the entire frameworks 1, 2, or 3, respectively, replaced by the murine counterpart. […] In this assay, cell binding of the CH1A-based antibody variants to CEA-expressing MKN-45 cells was analyzed at various concentrations. The affinity-matured light chain 2F1 was identical for all antibodies tested except for the parental antibody where the original light chain CL1A was used. Mean fluorescence was determined by FACS analysis. […] The DLS assay was performed using 1 mg/ml of the antibodies in a buffer of 20 mM Histidine and 140 mM NaCl at pH 6.0. The assay was conducted starting at 25° C. with an incremental temperature increase of 0.05° C./min up to 70° C. All antibodies tested in this assay had 2F1 as the light chain

[2] = biological target: T2, huNABA-avi-his (hybrid protein N-A1-B3-A2: N and A1 domains of human BGP, B3 domain of human CEA, A2 domain … (human, biotinylated at the avi tag (in vivo, co-transfected biotin ligase))); assay: Biacore, column Affinity, CDR-H1 and CDR-H2 rows; antigen not named on the sheet, NABA-avi-his per paragraph 230
T2 construct: also called NABA-avi-his reagent; biotinylated NABA
T2 chain: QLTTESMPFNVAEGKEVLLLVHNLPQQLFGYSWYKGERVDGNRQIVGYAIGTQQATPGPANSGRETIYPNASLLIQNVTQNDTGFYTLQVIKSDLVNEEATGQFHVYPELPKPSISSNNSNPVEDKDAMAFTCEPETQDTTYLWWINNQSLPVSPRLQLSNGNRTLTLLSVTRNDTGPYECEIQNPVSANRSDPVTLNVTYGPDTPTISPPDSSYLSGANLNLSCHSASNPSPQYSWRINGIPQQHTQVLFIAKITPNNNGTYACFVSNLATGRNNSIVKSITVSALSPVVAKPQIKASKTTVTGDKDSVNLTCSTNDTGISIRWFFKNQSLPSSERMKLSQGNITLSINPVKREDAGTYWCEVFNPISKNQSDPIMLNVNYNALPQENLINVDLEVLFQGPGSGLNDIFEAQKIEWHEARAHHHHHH

[3] = biological target: huNABA-avi-his (hybrid protein N-A1-B3-A2: N and A1 domains of human BGP, B3 domain of human CEA, A2 domain of BGP, with precision protease site, avi tag and (His)6 tag), biotinylated (human); assay: Biacore on immobilized NABA-avi-his; Bivalent Affinity
[4] = biological target: T2, huNABA-avi-his (hybrid protein …); assay: Biacore, column Affinity, CDR-H3 rows; antigen not named on the sheet, NABA-avi-his per paragraph 230
[5] = biological target: T2, huNABA-avi-his (hybrid protein …); assay: Biacore, Fab on immobilized NABA-avi-his; column Monovalent Affinity
[6] = biological target: T1, human carcinoembryonic antigen (CEA), …; assay: flow cytometry on MKN45 cells, IgG [upper panel]
Protocol: (§1) An affinity matured heavy chain variable region construct, CH7A rF9, and an affinity matured light chain variable region construct, CL1A rH11, were paired with the parent light chain variable region construct and the heavy chain variable region construct, respectively, and with each other. All antibodies were converted into human IgG1/kappa and binding to the CEA-positive cell-line MKN45 was measured by flow cytometry. […] The matured light chain shifts the EC50 values to lower numbers, whereas the matured heavy chains (rF9 in FIG. 6, and rB9 in FIG. 15) shift the total fluorescence signal intensity in a flow-cytometry measurement. […] The combination of these two chains increases the affinity even further.

[7] = biological target: T1, human carcinoembryonic antigen (CEA), …; assay: flow cytometry on MKN45 cells, IgG1/kappa
Protocol: as §1

[8] = biological target: T2, huNABA-avi-his (hybrid protein …); assay: Biacore, column Affinity, CDR-L1 and CDR-L2 rows; antigen not named on the sheet, NABA-avi-his per paragraph 230
[9] = biological target: T2, huNABA-avi-his (hybrid protein …); assay: Biacore, column Affinity, CDR-H1 and CDR-H2 rows; antigen not named on the sheet, NABA-avi-his per paragraph 230
[10] = biological target: T1, human carcinoembryonic antigen (CEA), …; assay: flow cytometry on CEA positive MKN45 cells, IgG [lower panel]
Protocol: as §1

[11] = biological target: T2, huNABA-avi-his (hybrid protein …); assay: Biacore on immobilized NABA-avi-his; Bivalent Affinity
[12] = biological target: T2, huNABA-avi-his (hybrid protein …); assay: Biacore SPR, Fab; antigen not named on the sheet, NABA-avi-his per paragraph 230
[13] = biological target: T2, huNABA-avi-his (hybrid protein …); assay: Biacore, column Affinity, CDR-L1 and CDR-L2 rows (QNVGTN and PLI-YSASYRYS); antigen not named on the sheet, NABA-avi-his per paragraph 230

EC50 (read off the curve) [1]: ~0.8 µg/mL
B1: anti-CEA antibody with heavy chain CH1A4 and light chain 2F1 (antibody, V domains shown)
VH: QVQLVQSGAEVKKPGASVKVSCKASGYTFTEFGMNWVRQAPGQGLEWMGWINTKTGEATYVEEFKGRFAFSLETSATTAYLQINNLKNEDTAKYFCARWDFYDYVEAMDYWGQGTTVTVSS
VL: DIQMTQSPSSLSASVGDRVTITCKASAAVGTYVAWYQQKPGKAPKLLIYSASYRKRGVPSRFSGSGSGTDFTLTISSLQPEDFATYYCHQYYTYPLFTFGQGTKLEIKR

Kd [2]: 26 nM
Kd [3]: 0.19 nM
koff [3]: 0.000175 s⁻¹
kon [3]: 902000 M⁻¹ s⁻¹
Kd [4]: 26 nM
Kd [5]: 24 nM
koff [5]: 0.0013 s⁻¹
kon [5]: 54200 M⁻¹ s⁻¹
B2: H3 Full (5) 19 (Fab, V domains shown)
VH: QVQLVQSGSELKKPGASVKVSCKASGYTFTEFGMSWVRQAPGQGLEWMGWINTKTGEATYVEEFKGRFVFSLDTSVSTAYLQISSLKAEDTAVYYCARWDAFEYVKALDYWGQGTTVTVSS
VL: DIQMTQSPSSLSASVGDRVTITCKASQNVGTNVAWYQQKPGKAPKLLIYSASYRYSGVPSRFSGSGSGTDFTLTISSLQPEDFATYYCHQYYTYPLFTFGQGTKLEIK

EC50 (read off the curve) [6]: ~0.5 µg/mL
EC50 (read off the curve) [7]: ~0.3 µg/mL
B3: antibody with parent heavy chain variable region CH7A and affinity matured light chain variable region CL1A rH11 (antibody, V domains shown)
VH: B2 VH with S35N, A101F, F102Y, E103D, K106E, L108M
VL: B2 VL with N28T, G30S, T31A, S50L, S56R
notes: The suffix G2(1) is not explained; also called CH7A, CL1ArH11; CH7A, CL1A rH11 G2(1)

Kd [8]: 3680 nM
Kd [4]: 3680 nM
Kd [5]: 3680 nM
koff [5]: 0.0248 s⁻¹
kon [5]: 6740 M⁻¹ s⁻¹
Kd [9]: 3680 nM
B4: PR1A3 (Fab, V domains shown)
VH: B2 VH with S35N, A101F, F102Y, E103D, K106E, L108M
VL: B2 VL
notes: also called PR1A3 wt/wt; pMS22

EC50 (read off the curve) [10]: ~0.5 µg/mL
B5: antibody with affinity matured heavy chain variable region CH7A rB9 and affinity matured light chain variable region CL1A rH11 G2(1) (antibody, V domains shown)
VH: B2 VH with S35N, T55S, A101F, F102Y, E103D, K106E, L108M
VL: B2 VL with N28T, G30S, T31A, S50L, S56R
notes: also called CH7A rB9, CL1A rH11 G2(1); CH7ArB9, CL1A rH11G2(1)

Kd [11]: 2 nM
koff [11]: 0.000552 s⁻¹
kon [11]: 282000 M⁻¹ s⁻¹
EC50 (read off the curve) [7]: ~0.6 µg/mL
EC50 (read off the curve) [10]: ~0.6 µg/mL
B6: humanized PR1A3 antibody comprising heavy chain variable region construct CH7A and light chain variable region construct CL1A (antibody, human IgG1, V domains shown)
VH: B2 VH with S35N, A101F, F102Y, E103D, K106E, L108M
VL: B2 VL
notes: also called CH7A CL1A; CH7A, CL1A

EC50 (read off the curve) [6]: ~0.7 µg/mL
B7: antibody with heavy chain variable region CH7A and affinity matured light chain variable region CL1A rH7 (antibody, V domains shown)
VH: B2 VH with S35N, A101F, F102Y, E103D, K106E, L108M
VL: B2 VL with N28K, G30L, S50L
notes: also called CH7A, CL1ArH7

Kd [12]: 518 nM
Kd [13]: 402 nM
Kd [5]: 402 nM
koff [5]: 0.0021 s⁻¹
kon [5]: 5220 M⁻¹ s⁻¹
Kd [9]: 402 nM
B8: anti-CEA Fab with affinity matured heavy chain CH7A H4E9 and unmatured light chain CL1A (Fab, V domains shown)
VH: B2 VH with S35N, V61I, A101F, F102Y, E103D, K106E, L108M
VL: B2 VL
notes: Fab format, bacterially expressed; also called CH7A H4E9 + CL1A

Reference: patent US20230365711A1 (Hoffmann-La Roche, published 2023)
